Measured values from patent US20220242961A1 (ABL BIO, published 2022).
Substitutions are numbered along the chain they refer to. Values belong to the binder of their own block, whether it stands above or below them.

What was measured:
[1] = biological target: T1, 4-1BB (antigen of the Octet kinetics) (human, UniProt Q07011 24-186, limits assumed); test: Octet Red 96 kinetics
T1 construct: the whole entry is named
Description: To explore the binding kinetics of the humanized antibody, this example performed the affinity ranking by using Octet Red 96.

human 4-1 BB-Fc protein = biological target: T2, human 4-1 BB-Fc protein (human, UniProt Q07011 24-186); test: ELISA on plate-coated human 4-1BB-Fc (0.1 ug/ml), goat anti-human IgG-HRP, TMB
T2 construct: also called extracellular domain 4-1 BB antigen; not shown: Fc part
Experimental: To evaluate the antigen binding activity, the antibody candidates were subjected to ELISA test. Briefly, microtiter plates were coated with human 4-1 BB-Fc protein at 0.1 μg/ml in PBS, 100 μl/well at 4° C. overnight, then blocked with 100 μl/well of 5% BSA. Serial dilutions of antibodies obtained in Example 1.1 were added to each well and incubated for 1-2 hours at RT. The plates were washed with PBS/Tween and then incubate with goat-anti-human IgG antibody conjugated with Horse Radish Peroxidase (HRP) for 1 hour at RT. After washing, the plates were developed with TMB substrate and analyzed by spectrophotometer at OD 450-630 nm.

Kd [1]: 0.79 nM | koff [1]: 0.000597 s⁻¹ | kon [1]: 755000 M⁻¹ s⁻¹
B1: 41B03 (antibody, human IgG4 S228P, V domains shown)
VH: EVQLLESGGGLVQPGGSLRLSCAASGFTFSSNVMNWVRQAPGKGLEWVSEISHSGSTNYNPSLKSRFTISRDNSKNTLYLQMNSLRAEDTAVYYCAVGAGNLGYWGQGTLVTVSS
VL: EIVLTQSPGTLSLSPGERATLSCQASQDISNYLNWYQQKPGQAPRLLIYGASSRATGIPDRFSGSGSGTDFTLTISRLEPEDFAVYYCQQYNSYPITFGQGTKLEIKR

EC50 (read off the curve) (human 4-1 BB-Fc protein): ~0.03 nM
B2: 41B02 (antibody, human IgG4 S228P, lambda, V domains shown)
VH: EVQLLESGGGLVQPGGSLRLSCAASGFTFSGYDMSWVRQAPGKGLEWVSVIYPDDGNTYYADSVKGRFTISRDNSKNTLYLQMNSLRAEDAAVYYCAKHGGQKPTTKSSSAYGMDGWGQGTLVTVSS
VL: QSVLTQPPSASGTPGRRVTISCSGSSSNIGNNYVTWYQQLPGTAPKLLIYADSHRPSGVPDRFSGSKSGTSASLAISGLRSEDEADYYCATWDYSLSGYVFGGGTKLTVLG
notes: also called anti-4-1BB antibody 41B02; 41B02 clone

EC50 (read off the curve) (human 4-1 BB-Fc protein): ~0.03 nM
B3: 41B02.01 (antibody, human IgG4 S228P, lambda, V domains shown)
VH: B2 VH with A91T
VL: B2 VL with R16Q
